Results: patent US20220040290A1

Molecular target: stabilized CH505 TF ch.SOSIP trimer (E64K/A316W) (HIV-1)
Assay: method not stated

Work on “unmutated common ancestor (UCA) of the CH103 B cell lineage (antibody)” yielded a Kd of 171 nM.
